Measured values taken from patent publication US20190233528A1 (published 2019).

B1: P15D02 anti-CD70 scFv-Fc fusion (Fc fusion)
chain: EVQLVQSGAEVKKPGESLKISCKGSGYSFASYWIGWVRQMPGKGLEWMGVIYPGTSETRYSPSFQGQVTISADKSISTAYLQWSSLKASDTAMYYCAKGLSASASGYSFQYWGQGTLVTVSSGGGGSGGGGSGGGGSGGGGSELDIQMTQSPSSLSASVGDRVTITCRASQSIDTYLNWYQQKPGKAPKLLIYSASSLHSGVPSRFSGSGSGTDFTLTISSLQPEDFATYYCQQSYSTTAWTFGQGTKVEIK
notes: scFv-Fc expressed in Expi293; not shown: part of the hinge and Fc from a modified human IgG2
B2: 10A1 anti-CD70 scFv-Fc fusion (Fc fusion)
chain: QVQLQESGPGLVKPSETLSLTCTVSGGSISYYYWTWIRQPPGKGLEWIGHIYYSGSTNYNPSLKSRVTISIDTSKNLFSLKLSSVTAADTAVYYCARAEGSLDAFDFWGQGTMVTVSSGGGGSGGGGSGGGGSGGGGSDIQMTQSPSTLSASVGDRVTITCRASQSISTWLAWYQQKPGKAPKVLIYKASSLESGVPSRFSGSGSGTEFILTINSLQPDDFASYYCQQYKSYSHTFGQGTKLEIK
notes: as for B1
B3: 10H10 anti-CD70 scFv-Fc fusion (Fc fusion)
chain: EVQLVESGGGLVQPGGSLRLSCAVSGFTFSNHNIHWVRQAPGKGLEWISYISRSSSTIYYADSVKGRFTISRDNAKNSLYLQMNSLRDEDTAVYYCARDHAQWYGMDVWGQGTTVTVSSGGGGSGGGGSGGGGSGGGGSDIQMTQSPSSVSASVGDRVTITCRASQGISSWLAWYQQKPGKAPKVLIYAASSLQSGVPSRFSGSGSGTDFTLTISSLQPEDFATYYCQQAFSFPFTFGPGTKVDIK
notes: as for B1
B4: 11C1 anti-CD70 scFv-Fc fusion (Fc fusion)
chain: QVQLQESGPGLVKPSETLSLNCTVSGGSISYYYWTWIRQPPGKGLEWIGHVIYSGTTNYNPSLKSRVTISVDTSKNQFSLKLNSVTAADTAVYYCVRAEGSLDAFDLWGQGTMVTVSSGGGGSGGGGSGGGGSGGGGSDIQMTQSPSILSASVGDRVTITCRASQSVSSWLAWYQQKPGKAPKVLIYKASSLESGVPSRFSGTGSGTEFTLTISSLQSDDFATYYCQQYNTYSHTFGQGTKLEIK
notes: as for B1
B5: 11E1 anti-CD70 scFv-Fc fusion (Fc fusion)
chain: QVQLQESGPGLVKPLQTLSLTCTVSGGSISSDGYYWSWIRQNPGKGLEWIGYMYYSGSTYYNPSLKSRVTISVDTSKNQFSLKLRSVTAADTAVYYCTRDFGWYFDLWGRGTLVTVSSGGGGSGGGGSGGGGSGGGGSDIQMTQSPSSLSASVGDSITITCRASQDIDNYLAWYQQKTGKVPKVLIYAASALQSGVPSRFSGSGSGTDFTLTISSLQPEDVATYYCQNYNSGPRTFGQGTKVEIK
notes: as for B1
B6: 12C4 anti-CD70 scFv-Fc fusion (Fc fusion)
chain: QVQLVQSGAEVKKPGASVKVSCKASGYTFTGYYLHWVRQAPGQGLEWMGWINPNSGGTNYAQKFQGRVTMTRDTSITTAYMELSRLRIDDTAVYYCARDRGVTMIVDGMDDWGQGTTVTVSSGGGGSGGGGSGGGGSGGGGSDIVMTQSPLSLPVTPGEPASISCRSSQSLLHSNGYNYLDWYLQKPGQSPQVLILLGSNRASGVPDRVSASGSGTDFTLKISRMQAEDVGIYYCMQTLQTPFTFGQGTKLEIK
notes: as for B1
B7: 12D6 anti-CD70 scFv-Fc fusion (Fc fusion)
chain: QVQLQESGPGLVKPSQTLSLTCTVSGGSISSDAYYWSWIRQHPGKGLEWIGYMYYSGITYYNPSLKSRVTISVDTSKNQFSLKLSSVTAADTAVYYCARDFGWYFDLWGRGTLVTVSSGGGGSGGGGSGGGGSGGGGSDIQMTQSPSSLSASVGDRVTITCRASQDISNYLAWYQQKPGKVPKLLIYAASTLHSGVPSRFSGSGSGTDFTLTISSLQPDDFAAYYCQKYNSAPRTFGQGTKVEIK
notes: as for B1
B8: 12D7 anti-CD70 scFv-Fc fusion (Fc fusion)
chain: QVQLVESGGGVVQPGRSLRLSCVASGFTFSDYGIHWVRQAPGMGQEWVAVIWYDGSIKKYSDSVKGRFIISRDNSENTVYLQMNSLRGEDTAIYYCARDEVGTFGAFDFWGQGTKVTVSSGGGGSGGGGSGGGGSGGGGSDIQLTQSPSFLSASVGDRVSITCRASQDISSFLAWYQQKPGKAPVLLIYVASTLQSGVPSRFSGSGSGTEFTLTVSSLQPEDFATYYCQQLHVYPITFGQGTRLEIR
notes: as for B1
B9: 4F11 anti-CD70 scFv-Fc fusion (Fc fusion)
chain: QVTLKESGPVLVKPTETLTLTCTVSGFSLSNARMGVTWIRQPPGKALEWLAHIFSNDEKSYSTSLKSRLTISKDTSKTQVVLTMTNMDPVDTATYYCARIRDYYDISSYYDYWGQGTLVSVSSGGGGSGGGGSGGGGSGGGGSDIQMTQSPSAMSASVGDRVTITCRASQDISNYLAWFQQKPGKVPKRLIYAASSLQSGVPSRFSGSGSGTEFTLTISSLLPEDFATYYCLQLNSFPFTFGGGTKVEIN
notes: as for B1
B10: 8C8 anti-CD70 scFv-Fc fusion (Fc fusion)
chain: EVQLVESGGGLVKPGGSLRLSCVASGFTFSSYSMNWVRQFPGKGLEWVSSISTSSNYIHYADSLQGRFTISRDNAKNSLYLQMSSLRVEDTAVYYCVRDKGTTLTNWYFDLWGRGTLVTVSSGGGGSGGGGSGGGGSGGGGSDMQMTQSPSSLSASVGDRVTLTCRASQGISNYLAWFQLKPGKVPKLLIYAASTLQSGVPSRFSGSGSGTDFALTISSLQPEDVATYYCQKYNSAPLTFGGGTKVEIK
notes: as for B1
B11: 9E10 anti-CD70 scFv-Fc fusion (Fc fusion)
chain: QVQLVQSGAEVTKPGASVKVSCKASGYTFTSHYIYWVRQAPGQGLEWMGWINPNSGGTNYAQKFQDRVTMARDTSISTAYMELSRLRSDDTAVYYCAKDRKREYYYNFGMDVWGQGTTVTVSAGGGGSGGGGSGGGGSGGGGSDIQMTQSPSSLSASVGDRVILTCQASQDISNYLHWYQQKPGKAPKLLIYDASDLETGVPSRFSGSGSGADFTFTISNLQPEDFATYYCQQYDHLPITFGQGTRLEIK
notes: as for B1
B12: P08E02 anti-CD70 scFv-Fc fusion (Fc fusion)
chain: EVQLVQSGAEVKKPGESLKISCKGSGYSFTSSWIGWVRQMPGKGLEWMGIIYPGDSDTRYSPSFQGQVTISADKSISTAYLQWSSLKASDTAMYYCAKGLSQAMTGFGFDYWGQGTLVTVSSGGGGSGGGGSGGGGSGGGGSELDIQMTQSPSSLSASVGDRVTITCRASQSISRYLNWYQQKPGKAPKLLIYAASILQTGVPSRFSGSGSGTDFTLTISSLQPEDFATYYCQQSYSTTMWTFGQGTKVEIK
notes: as for B1
B13: P08F08 anti-CD70 scFv-Fc fusion (Fc fusion)
chain: EVQLVQSGAEVKKPGESLKISCKGSGYGFTSYWIGWVRQMPGKGLEWMGIIHPDDSDTKYSPSFQGQVTISADKSISTAYLQWSSLKASDTAMYYCASSYLRGLWGGYFDYWGQGTLVTVSSGGGGSGGGGSGGGGSGGGGSELQSVLTQPPSASGTPGQRVTISCSGSSSNIGSNYVNWYQQLPGTAPKLLIYGDYQRPSGVPDRFSGSKSGTSASLAISGLRSEDEADYYCATRDDSLSGSVVFGTGTKLTVL
notes: as for B1
B14: P08G02 anti-CD70 scFv-Fc fusion (Fc fusion)
chain: EVQLVQSGAEVKKPGESLKISCKGSGYTFPSSWIGWVRQMPGKGLEWMGIIYPDTSHTRYSPSFQGQVTISADKSISTAYLQWSSLKASDTAMYYCARASYFDRGTGYSSWWMDVWGQGTLVTVSSGGGGSGGGGSGGGGSGGGGSELDIQMTQSPSSLSASVGDRVTITCRASQSIYDYLHWYQQKPGKAPKLLIYDASNLQSGVPSRFSGSGSGTDFTLTISSLQPEDFATYYCQQSYTTPLFTFGQGTKVEIK
notes: as for B1
B15: P12B09 anti-CD70 scFv-Fc fusion (Fc fusion)
chain: EVQLLESGGGLVQPGGSLRLSCAASGFTFSQYSMSWVRQAPGKGLEWVSAISGGGVSTYYADSVKGRFTISRDNSKNTLYLQMNSLRAEDTAVYYCASDISDSGGSHWYFDYWGQGTLVTVSSGGGGSGGGGSGGGGSGGGGSELDIQMTQSPSSLSASVGDRVTITCRASQYIGRYLNWYQQKRGKAPKLLIHGATSLASGVPSRFSGSGSGTDFTLTISSLQPEDFATYYCQQSYSTTSPTFGQGTKVEIK
notes: as for B1

The binders below were run against T1, recombinant human CD70 (AviTag, polyhistidine tag and chicken tenascin trimerization domain fused to the … (chicken; human, UniProt P10039 110-139, limits assumed) (assay: SPR (Biacore 8K, 37 C): CD70 captured via anti-AviTag antibody on C1 chip, scFv-Fc as analyte; 1:1 Langmuir fit).
T1 construct: domain: trimerization domain; Expressed in Expi293, purified by IMAC and SEC; Copies 3 is inferred from the trimerization domain; not shown: AviTag; polyhistidine tag
T1 sequence: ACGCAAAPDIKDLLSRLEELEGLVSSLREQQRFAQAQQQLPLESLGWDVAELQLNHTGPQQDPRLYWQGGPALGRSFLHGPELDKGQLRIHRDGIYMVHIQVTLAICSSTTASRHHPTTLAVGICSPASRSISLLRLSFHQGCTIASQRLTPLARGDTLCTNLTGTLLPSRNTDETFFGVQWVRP
Method: The antibody binding kinetics were determined by surface plasmon resonance (Biacore 8K, GE Healthcare Bio-Sciences, Pittsburgh Pa.) at 37° C. in HBS-T+ (0.01 M HEPES pH 7.4, 0.15 M NaCl, 0.05% v/v Tween20, 1 mg/mL BSA). Recombinant human CD70 diluted in HBS-T+ was captured on a C1 chip immobilized with an anti-AviTag™ antibody. Purified anti-CD70 scFv-Fc fusions were serially diluted into HBS-T+, injected at 30 uL/min for 2-4 min, dissociation monitored for 10 min then the surface regenerated with 75 mM phosphoric acid between injections. Buffer cycles were collected for each anti-CD70 scFv-Fc fusion for double-referencing purposes (double-referencing as described in Myszka, D. G. Improving biosensor analysis. J. Mol. Recognit. 12, 279-284 (1999)). Kinetic association rates (kₒₙ) and dissociation rates (koff) were obtained simultaneously by fitting the double-referenced sensorgrams globally to a 1:1 Langmuir with mass transport model using Biacore 8K Evaluation Software (GE Healthcare Bio-Sciences, Pittsburgh Pa.) then used to calculate an equilibrium dissociation constant (KD) from the kinetic rate constants (KD=koff/kₒₙ). The data was fit to a 1:1 steady state affinity model using Biacore 8K Evaluation Software to determine a steady state equilibrium dissociation constant (SS KD) as needed.

Going from B1 to B2, the Kd rises from less than 0.3 nM to 1.3 nM. The first binds more tightly here.

Going from B3 to B4, the Kd falls from 69.3 nM to 0.8 nM (87-fold). The second binds more tightly here.

Going from B5 to B6, the Kd falls from 1.7 nM to 0.3 nM (5.7-fold).

First: B7
Second: B8
The Kd of the first is 16-fold higher: 27.3 nM for the first, 1.7 nM for the second. The second binds more tightly here.

Going from B9 to B10, the Kd rises from 1.9 nM to 15.4 nM (8.1-fold). The first binds more tightly here.

Going from B11 to B12, the Kd rises from 2.6 nM to 5.3 nM (2-fold).

First: B13
Second: B14
The Kd of the first is 31-fold lower: 10.7 nM for the first, 330 nM for the second. The first binds more tightly here.

B15 showed a Kd of 4.1 nM.

First: B1
Second: B2
The koff of the first is lower: less than 8.05e-05 s⁻¹ for the first, 0.000773 s⁻¹ for the second.

First: B3
Second: B4
The koff of the first is 17-fold higher: 0.0032 s⁻¹ for the first, 0.000186 s⁻¹ for the second.

Compared with B5, B6 is 2.2-fold lower in koff: 0.001 s⁻¹ for the first, 0.000455 s⁻¹ for the second.

Going from B7 to B8, the koff falls from 0.00194 s⁻¹ to 0.000755 s⁻¹ (2.6-fold).

B9 and B10 are within 1.5-fold of each other in koff: 0.0016 s⁻¹ for the first, 0.00159 s⁻¹ for the second.

Compared with B11, B12 is 2.1-fold higher in koff: 0.00212 s⁻¹ for the first, 0.00438 s⁻¹ for the second.

Going from B13 to B14, the koff falls from 0.0153 s⁻¹ to 0.00788 s⁻¹ (1.9-fold).

Binder B15 has a koff of 0.00135 s⁻¹.

First: B1
Second: B2
The kon of the first is 2-fold lower: 286000 M⁻¹ s⁻¹ for the first, 577000 M⁻¹ s⁻¹ for the second.

Compared with B3, B4 is 4.8-fold higher in kon: 46200 M⁻¹ s⁻¹ for the first, 224000 M⁻¹ s⁻¹ for the second.

Compared with B5, B6 is 2.7-fold higher in kon: 578000 M⁻¹ s⁻¹ for the first, 1.56e+06 M⁻¹ s⁻¹ for the second.

Compared with B7, B8 is 6.2-fold higher in kon: 71200 M⁻¹ s⁻¹ for the first, 441000 M⁻¹ s⁻¹ for the second.

Compared with B9, B10 is 8-fold lower in kon: 825000 M⁻¹ s⁻¹ for the first, 103000 M⁻¹ s⁻¹ for the second.

B11 and B12 are within 1.5-fold of each other in kon: 825000 M⁻¹ s⁻¹ for the first, 823000 M⁻¹ s⁻¹ for the second.

Going from B13 to B14, the kon falls from 1.44e+06 M⁻¹ s⁻¹ to 23900 M⁻¹ s⁻¹ (60-fold).

For B15, the kon was 330000 M⁻¹ s⁻¹.

Compared with B1, B2 is lower in “t1/2” value: greater than 136 min for the first, 14.9 min for the second.

Going from B3 to B4, the “t1/2” value rises from 3.6 min to 62.2 min (17-fold).

First: B5
Second: B6
The “t1/2” value of the first is 2.2-fold lower: 11.6 min for the first, 25.3 min for the second.

Compared with B7, B8 is 2.6-fold higher in “t1/2” value: 5.9 min for the first, 15.3 min for the second.

B9 and B10 are within 1.5-fold of each other in “t1/2” value: 7.2 min for the first, 7.3 min for the second.

Compared with B11, B12 is 2.1-fold lower in “t1/2” value: 5.4 min for the first, 2.6 min for the second.

Going from B13 to B14, the “t1/2” value rises from 0.8 min to 1.5 min (1.9-fold).

In the case of B15, the “t1/2” value is reported as 8.6 min.
